Results reported in paper PMC4018528.

Target: recombinant His-tagged Sp4E-BP (Strongylocentrotus purpuratus 4E-BP) (Strongylocentrotus purpuratus)
Assay: SPR; Sp4E-BP immobilised (60 uRIU) by amine coupling on a mixed SAM chip; Flag-MmIF4E1:m7GTP injected from 4.37 uM to 53.9 nM (3-fold dilution series); 25°C; HEPES 50 mM pH 7.7, KCl 150 mM, 0.5% Igepal; flow 25 uL/min; global fit, one step 1:1 reaction (Scrubber 2.0a)

Kd: 23 nM
koff: 0.00022 s⁻¹
kon: 9300 M⁻¹ s⁻¹
Substance: Flag-tagged MmIF4E1 (eIF4E1 from Mus musculus), as Flag-MmIF4E1:m7GTP (from UniProt P63073 1-217) (natural protein)
